± gives the uncertainty stated by the source.
Assay: self-splicing fitness, log relative to wild type (ln ratio); higher = more splicing; Tetrahymena group I intron in knt gene, E. coli kanamycin selection, DiMSum; sequences stand for … in CUCUCU…GGAGGGAAAAGUUAUCAGGCAUGCACCUGGUAGCUAGUCUUUAAACCAAUAGAUUGCAUCGGUUUAAAAGGCAAGACCGUCAAAUUGCGGGAAAGGGGUCAACAGCCGUUCAGUACCAAGUCUCAGGGGAAACUUUGAGAUGGCCUUGCAAAGGGUAUGGUAAUAAGCUGACGGACAUGGUCCUAACCACGCAGCCAAGUCCUAAGUCAACAGAUCUUCUGUUGAUAUGGAUGCAGUUCACAGACUAAAUGUCGGUCGGGGAAGAUGUAUUCUUCUCAUAAGAUAUAGUCGGACCUCUCCUUAAUGGGAGCUAGCGGAUGAAGUGAUGCAACACUGGAGCCGCUGGGAACUAAUUUGUAUGCGAAAGUAUAUUGAUUAGUUUUGGAGUACUCGUGGUCG
Summary of the method: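 Colonies from six replicate transformations of E. coli BL21(DE3) were pooled and amplicon-sequenced on an Illumina HiSeq 2500. The library placed an intron with all eight P1ex-region nucleotides randomised inside the knt kanamycin-resistance gene on pET-22b(+), and cells grew overnight at 37°C or 30°C on LB agar with or without 25 μg/mL kanamycin (plus 100 μg/mL carbenicillin, 50 μM IPTG, 0.2% rhamnose). Fitness is the DiMSum error-weighted combination of wild-type-normalised replicate fold changes, kanamycin versus none.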

| Sequence | self-splicing fitness (ln) (30 °C) | self-splicing fitness (ln) (37 °C) |
| --- | --- | --- |
| CAUGAGCAAUAUUACGGUGC | -3.35 ± 0.28 | -3 ± 0.26 |
| ACUCAGCAAUAUUACGUAUA | -2.19 ± 0.11 | -1.11 ± 0.1 |
| GGUAAGCAAUAUUACGUAGG | -2.78 ± 0.19 | -3.5 ± 0.28 |
| GAACAGCAAUAUUACGGUGG | -2 ± 0.095 | -1.19 ± 0.1 |
| AGUAAGCAAUAUUACGAUGC | -2.58 ± 0.19 | -1.67 ± 0.15 |
| AAAUAGCAAUAUUACGACCC | -0.239 ± 0.16 | -0.544 ± 0.23 |
| UGUAAGCAAUAUUACGAGUU | -2.78 ± 0.13 | -2.69 ± 0.23 |
| GUAUAGCAAUAUUACGUUCA | -1.06 ± 0.2 | -0.424 ± 0.23 |
| UGAAAGCAAUAUUACGUGGU | -3.22 ± 0.17 | -2.55 ± 0.23 |
| CAUAAGCAAUAUUACGUACU |  | -2 ± 0.32 |
| UAGAAGCAAUAUUACGAGCU | -3.2 ± 0.25 | -1.18 ± 0.2 |
| GUGCAGCAAUAUUACGUGGU | -2.55 ± 0.078 | -1.1 ± 0.091 |
| CUGGAGCAAUAUUACGGUUG | -1.87 ± 0.081 | -1.11 ± 0.095 |
| AUGAAGCAAUAUUACGUAGA | -2.86 ± 0.18 | -1.84 ± 0.19 |
| GGAUAGCAAUAUUACGAUCC | -1.95 ± 0.45 |  |
| CGUGAGCAAUAUUACGUAGC | -1.15 ± 0.34 | -1.28 ± 0.35 |
| CCACAGCAAUAUUACGUCUU | -3.88 ± 0.14 | -2.85 ± 0.12 |
| GGCAAGCAAUAUUACGGUUG | -1.16 ± 0.063 | -0.62 ± 0.083 |
| GAUAAGCAAUAUUACGCUAU | -2.91 ± 0.26 | -1.01 ± 0.29 |
| AUGUAGCAAUAUUACGAGCG | -1.23 ± 0.11 | -1.8 ± 0.14 |

| Sequence | self-splicing fitness (ln) (30 °C) | self-splicing fitness (ln) (37 °C) |
| --- | --- | --- |
| UUGAAGCAAUAUUACGACCU | 0.0483 ± 0.11 | 0.587 ± 0.14 |
| AGUCAGCAAUAUUACGGUAG | -3.46 ± 0.15 | -2.76 ± 0.21 |
| AUUAAGCAAUAUUACGUUUU | -2.27 ± 0.11 | -1.81 ± 0.12 |
| UUUCAGCAAUAUUACGACUU | -0.723 ± 0.077 | -0.00938 ± 0.099 |
| UCGAAGCAAUAUUACGCUGC | -3.55 ± 0.43 | -1.49 ± 0.4 |
| GUCGAGCAAUAUUACGUAAG | -2.59 ± 0.14 | -1.34 ± 0.18 |
| GCCUAGCAAUAUUACGGGAU | -0.903 ± 0.11 | 0.0611 ± 0.13 |
| GCAUAGCAAUAUUACGCGAU | -3.36 ± 0.16 | -1.93 ± 0.14 |
| UGCAAGCAAUAUUACGCUGG | -4 ± 0.35 | -3.17 ± 0.24 |
| UGUAAGCAAUAUUACGAAGA |  | -0.905 ± 0.37 |
| CCCUAGCAAUAUUACGCCGU | -2.57 ± 0.25 | -2.42 ± 0.39 |
| CGUAAGCAAUAUUACGUGUC | -1.85 ± 0.22 | -3.01 ± 0.28 |
| GUAAAGCAAUAUUACGGAGA | -3.54 ± 0.28 |  |
| UUCAAGCAAUAUUACGCUAC | -3 ± 0.25 | -1.52 ± 0.26 |
| CAAGAGCAAUAUUACGGGAA | -2.06 ± 0.11 | -3.01 ± 0.18 |
| CGUGAGCAAUAUUACGAGCA | -1.58 ± 0.085 | -0.55 ± 0.11 |
| GAGUAGCAAUAUUACGAGCA | -2.06 ± 0.21 | 0.532 ± 0.14 |
| CCCCAGCAAUAUUACGGUUU | -3.85 ± 0.16 | -3.12 ± 0.21 |
| CCCGAGCAAUAUUACGUUUG | -4.07 ± 0.23 | -2.07 ± 0.14 |

Reference: the supplement of paper PMC7877785
